Source: US20030153523, “Methods for identifying RNA binding compounds” (University of Medicine and Dentistry of New Jersey, published 2003)

Molecular target: T1, Tat (48-57) peptide (HIV-1)
T1 chain: GRKKRRQRRR

B1: TAR RNA (wild type) (ssRNA)
RNA: GGCAGAUCUGAGCCUGGGAGCUCUCUGCC
B1 gave a Kd of 727 nM.
